The assay deals with T1, EGFR on the surface of A431 cells (human, UniProt P00533 25-1210).
T1 construct: whole, on cells; also called cell surface EGFR
Description: flow cytometry on A431 cells with cetuximab or rituximab pre-incubation. On the technique in general: A flow cytometer gives signals particle by particle.

The values below come from WO2014041119A1 (dated 2014).

B1: ONC-scFvEGFR (onconase (ONC) fused to a single-chain antibody fragment (scFv) against EGFR) (scFv)
chain: QDWLTFQKKHITNTRDVDCDNIMSTNLFHCKDKNTFIYSRPEPVKAICKGIIASKNVLTTSEFYLSDCNVTSRPCKYKLKKSTNKFCVTCENQAPVHFVGVGSCGGGGSGGGGSGGGGSEVQLVESGGGLVQPGGSLRLSCAASGFSLTNYGVHWVRQAPGKGLEWLGVIWSGGNTDYNTPFTSRFTISRDNSKNTLYLQMNSLRAEDTAVYYCARALTYYDYEFAYWGQGTTVTVSSGGGGSGGGGSGGGGSDIQLTQSPSFLSASVGDRVTITCRASQSIGTNIHWYQQKPGKAPKLLIKYASESISGVPSRFSGSGSGTEFTLTISSLQPEDFATYYCQQNNNWPTTFGAGTKLEIKRAAAEQKLISEEDLNGAAHHHHHH
notes: also called immunoRNase; fusion polypeptide
Consider B1, for which the binding result is recorded as “binds”.
